“Also recorded” adds a separate entry of the source.
Columns and labels:
human BVR = biological target: T1, human BVR (Homo sapiens, UniProt P53004); assay: BVR autophosphorylation; format: biochemical; settings: 20 mM Zn acetate, pH 8.4; also with Mn^+2
T1 construct: made in house; host or cells: E. coli (pGEX 4T-2/hBVR)
T1 sequence (P53004 1-296 A154S/G155D/E160D): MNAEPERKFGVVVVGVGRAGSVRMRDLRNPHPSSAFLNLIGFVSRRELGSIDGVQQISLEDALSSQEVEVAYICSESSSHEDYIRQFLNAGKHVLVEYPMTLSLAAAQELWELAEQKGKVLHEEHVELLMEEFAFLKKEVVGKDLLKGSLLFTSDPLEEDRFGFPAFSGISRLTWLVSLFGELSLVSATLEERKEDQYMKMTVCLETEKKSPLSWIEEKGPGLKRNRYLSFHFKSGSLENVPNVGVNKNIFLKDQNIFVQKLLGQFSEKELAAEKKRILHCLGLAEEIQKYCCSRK
Protocol: In FIG. 9A, effect of tyrosine mutations of BVR on its autophosphorylation is shown. Human wtBVR and BVR with mutations in tyrosine were used in the experiment to determine autophosphorylation of BVR. The reactions were performed as described in the Examples. FIG. 9B is a graph showing that BVR tyrosine kinase activity was checked by incubating 5 μg purified BVR with 5 μg Raytide in 50 μl kinase buffer containing 10 μM labeled ATP for 2 h at 30° C. The aliquots of the reaction were transferred onto P81 Whatman filters and radioactivity due to phosphorylation was measured using a scintillation counter.
FIGS. 10A-B illustrate that autophosphorylation of BVR is an Mn^+2 dependant kinase reaction. […] The effects of different metal ions (30 mM MnCl2, 20 mM MgCl2, 20 mM CaCl2, 20 mM Zn acetate) and their combinations were analyzed as indicated in the text. […] Phosphorylation of wtBVR by IRK in the presence of tyrosine kinase inhibitor genestein (200 μM); DMSO was used as the vehicle for genestein and was included in the control reaction mixture. The reactions were carried out in HEPES buffer (pH 8.0) in the presence of 20 mM MgCl2 as described in the Examples.
(§1) To detect autophosphorylation of BVR, GST-hBVR of wild type (wt) and mutant variants were incubated in 50 mM HEPES buffer (pH 8.4) in the presence of 30 mM MnCl2 and 1 mM DTT for 2 h at 30° C. The reaction was started with the addition of 10 μM ATP labeled with 10 μCi [γ-^32P]-ATP and was stopped with the addition of Laemmli sample buffer. Samples were boiled for 3 min and applied to a 8% SDS-PAGE gels, transferred to a PVDF membrane, and then visualized by autoradiography. […] The reaction was started with the addition of ATP and terminated by adding 120 μl 10% H3PO4. 100 μl aliquots were directly transferred to P81 Whatman filters which were subsequently washed extensively in 0.75% phosphoric acid at room temperature. Finally, the filters were submerged in acetone for 5 min, dried, and retained counts were measured using a Beckman LS 6500 liquid scintillation counter (Beckman Coulter, Fullerton, Calif.).

BVR [1] = assay: BVR tyrosine phosphorylation in insulin-treated 293A cells (immunoprecipitation/immunoblot); format: cell-based, human; settings: within 8 min after insulin treatment
Protocol: FIG. 12A-D illustrates that “knock-down” BVR and Y^198 detection increased glucose uptake into 293A cells upon insulin induction. As shown in the graph of FIG. 12A, insulin treatment increases BVR activity. 293A cells were treated with insulin (50 nM) and subsequently used at indicated time points for BVR activity measurement. […] Purified BVR was phosphorylated by IRK for the indicated periods. Reactions were terminated by diluting with PBS and freezing at −20° C. BVR activity was determined as in FIG. 12A, and normalized to that of the control (43.8 μmol per min per mg). […] 293A cells were incubated with insulin and after 8 min or 30 min, subjected to immunoprecipitation using anti-human BVR antibodies. The phosphorylated BVR was visualized by immunoblotting using anti-tyrosine antibodies. ECL system was used for visualization of phosphorylated BVR. In FIG. 12D, the effect of insulin treatment on glucose uptake cells infected with siBVR or Y^198 mutant BVR were treated with insulin for 15 min and subsequently incubated in 1 ml PBS containing 5 mM glucose and 1 μCi/ml-2-deoxy-1 [^3H] glucose (2DG) for 15 min. Cells were washed with cold PBS and lysed by addition of 1% (w/v) SDS to each well. […]
293A Cells were plated in 10 cm plates and transfected with appropriate plasmids. […] Protein concentration was determined by Bradford assay (Bio-Rad, Hercules, Calif.). […]

BVR [2] = assay: BVR reductase activity in insulin-treated 293A cells; format: cell-based, human; settings: insulin 50 nM, measured 1 h after treatment
Protocol: FIG. 12A-D illustrates that “knock-down” BVR and Y^198 detection increased glucose uptake into 293A cells upon insulin induction. As shown in the graph of FIG. 12A, insulin treatment increases BVR activity. 293A cells were treated with insulin (50 nM) and subsequently used at indicated time points for BVR activity measurement. […] Purified BVR was phosphorylated by IRK for the indicated periods. Reactions were terminated by diluting with PBS and freezing at −20° C. BVR activity was determined as in FIG. 12A, and normalized to that of the control (43.8 μmol per min per mg). […] 293A cells were incubated with insulin and after 8 min or 30 min, subjected to immunoprecipitation using anti-human BVR antibodies. The phosphorylated BVR was visualized by immunoblotting using anti-tyrosine antibodies. ECL system was used for visualization of phosphorylated BVR. […]
293A cells treated with insulin were lysed in buffer containing a protease inhibitor cocktail and phosphatase inhibitors (10 mM NaF, 1 mM NaVO4). BVR activity was measured at pH 6.7 using NADH as the cofactor as described previously (Huang et al., J. Biol. Chem. 264:7844-9 (1989), which is hereby incorporated by reference in its entirety). The rate of conversion of biliverdin to bilirubin was determined as the increase in absorbance at 450 nm at 25° C. Specific activity is expressed as μmol of bilirubin/min/mg of protein.

[3] = test system: rat smooth muscle cells (PAC1); assay: Glucose uptake in PAC1 cells (IGF-dependent); format: cell-based
Protocol: Glucose uptake was tested as described infra. Cells were starved in low glucose serum-depleted DMEM for 20 hours prior to transfer to PBS containing CaCl2, MgCl2. After 2 hrs myristoylated peptides were added to the medium for 2 hours. Thereafter, IGF-1 (50 ng/ml) or insulin (100 nM) was added (10 min) and glucose uptake was tested for 3 min in the presence of methyl-D-glucose,3-O-[methyl-3H]. Subsequently cells were washed 3 times in cold PBS and solubilized in NaOH (0.05 mM). Aliquots were measured for radioactivity. Non-specific binding or diffusion were tested by addition of 300 mM glucose to the cells. This value was deducted from the total counts (on the average <20%) and results were normalized for protein concentration.
FIGS. 15A-B show the effect of hBVR-based peptides on IGF-dependent glucose uptake in rat smooth muscle cells (PAC1) (FIG. 15A) and insulin-dependent glucose uptake in human epithelial kidney (HEK) cells (FIG. 15B). Cells were treated as described for FIG. 14 and glucose uptake was measured as described infra.
The therapeutic utility of various BVR peptides with regard to their ability to modify insulin and insulin growth factor (IGF) mediated cellular glucose uptake was evaluated. Human embryonic kidney cells (HEK293) or rat aortic smooth muscle cells (PAC) were starved in low glucose serum-depleted DMEM for twenty hours prior to transfer to PBS containing CaCl2, MgCl2. After two hours, myristoylated peptides were added to the medium for two additional hours. Thereafter, IGF-1 (50 ng/ml) or insulin (100 nM) was added (10 min) and glucose uptake was tested for three minutes in the presence of methyl-D-glucose,3-O-[methyl-3H]. Subsequently, cells were washed three times in cold PBS and solubilized in NaOH (0.05 mM). Aliquots were measured for radioactivity. Non-specific binding or diffusion was tested by addition of 300 mM glucose to the cells. This value was deducted from the total counts (on the average <20%) and results were normalized for protein concentration.

IRK = biological target: T2, IRK (Homo sapiens, UniProt P06213); assay: IRK autophosphorylation in the presence of hBVR-derived peptides; format: biochemical; settings: 20 μM myristoylated hBVR-based peptide, 45 min, purified IRK
T2 construct: the intracellular kinase domain of the insulin receptor; purchased Biomol International (Plymouth, Pa.)
T2 sequence (P06213 980-1382 limits assumed): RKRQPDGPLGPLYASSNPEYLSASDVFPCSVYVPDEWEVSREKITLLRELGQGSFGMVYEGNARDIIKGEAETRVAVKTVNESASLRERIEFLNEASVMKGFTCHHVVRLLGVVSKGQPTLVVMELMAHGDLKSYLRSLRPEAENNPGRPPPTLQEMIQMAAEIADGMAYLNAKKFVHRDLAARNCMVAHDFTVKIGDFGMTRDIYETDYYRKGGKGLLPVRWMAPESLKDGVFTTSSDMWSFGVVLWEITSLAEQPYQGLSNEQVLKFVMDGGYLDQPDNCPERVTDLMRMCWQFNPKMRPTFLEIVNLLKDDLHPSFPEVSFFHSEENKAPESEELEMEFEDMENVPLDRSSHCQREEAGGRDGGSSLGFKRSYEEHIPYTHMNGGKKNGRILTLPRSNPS
Protocol: FIGS. 13A-B show the effect of hBVR-derived peptides on autophosphorylation of IRK (FIG. 13A) and IRK kinase activity (FIG. 13B). Purified IRK was incubated in the absence or presence of 20 μM of the identified myristoylated hBVR-based peptides for 45 min in an assay system containing 50 mM Hepes pH 7.4, 20 mM MCl2,1 mM EGTA and 20 μM ATP labeled with 5 uCi gamma-P32-ATP. The reaction was stopped with the addition of phosphoric acid and aliquots were applied to P81 Whatman filters. Filters were extensively washed and subjected to counting in a scintillation counter. Total counts of radioactivity of each sample were corrected for non specific binding. […] Activity of IRK toward its substrate, IRS peptide, was tested in the presence of hBVR-based peptides. Experiments were conducted as in described for FIG. 13A with addition of IRS peptide as the substrate.
The effect of hBVR-derived peptides on autophosphorylation of IRK (FIG. 13A) and IRK kinase activity (FIG. 13B) was also investigated.

[4] = biological target: T3, Peptide 1, mutant IRS-1 peptide (Lys-Lys-His-Ala-Asp-Asp-Gly-Ala-Met-Pro-Met-Ser-Pro-Gly-Val-Ala)
T3 chain: KKHADDGAMPMSPGVA

[5] = biological target: insulin receptor substrate-1 (IRS-1) peptide Y^608
[6] = biological target: T4, Peptide 2, IRS-1 peptide (Arg-Thr-Glu-Ser307-Ile-Thr-Ala-Thr-Ser312-Pro-Ala-Ser315-Met-Val-Gly-Gly-Lys-Pro)
T4 chain: RTESITATSPASMVGGKP

IRS-1 = assay: BVR kinase activity with IRS-1 as substrate (wt vs G17 mutant); format: biochemical; settings: mutation in ATP binding domain compared with wtBVR
Protocol: BVR containing mutations on threonine 202 and serine residues, as indicated in the figure, were subjected to autophosphorylation analysis as described in the text. […] 5 μg purified BVR was incubated with 5 μg IRS-1 or HO-1 or HO-2, used as a control for kinase activity, and MBP which was used as the substrate control in 50 μl kinase buffer as described in the Examples. […] Mutant G^17 was compared with wtBVR as a kinase for IRS.
as §1

Molecule: CC(=O)[O-].CC(=O)[O-].[Zn+2] [Zn^+2, Zn acetate, reference compound]
- BVR autophosphorylation in presence of metal ion (human BVR): inhibitory to BVR autophosphorylation

Molecule: insulin: Human insulin purchased from Sigma-Aldrich
- BVR tyrosine phosphorylation (BVR [1]): dramatic increase in phosphorylation
- increase in BVR reductase activity (BVR [2]): 2 fold

Molecule: KYCCSRK (Biliverdin reductase derived peptide) [C-terminal hBVR peptide, amino acids 290-296 of BVR; mimics insulin signaling]
- effectiveness in enhancing cellular glucose uptake compared with IGF-1 ([3]; PAC1 cells, IGF-1 50 ng/ml): as effective as IGF-1
- cellular glucose uptake in PAC1 cells ([3]; myristoylated peptide 2 h, uptake of methyl-D-glucose,3-O-[methyl-3H] for 3 min): enhances cellular glucose uptake in PAC1 cells in a dose-dependent manner; also recorded: increases glucose uptake in PAC1 cells in a concentration dependent manner
- IRK autophosphorylation (IRK): increases IRK autophosphorylation

B1: GST-hBVR fusion protein, wild type (human biliverdin reductase fused to glutathione-S-transferase) (protein)
chain: MNAEPERKFGVVVVGVGRAGSVRMRDLRNPHPSSAFLNLIGFVSRRELGSIDGVQQISLEDALSSQEVEVAYICSESSSHEDYIRQFLNAGKHVLVEYPMTLSLAAAQELWELAEQKGKVLHEEHVELLMEEFAFLKKEVVGKDLLKGSLLFTSDPLEEDRFGFPAFSGISRLTWLVSLFGELSLVSATLEERKEDQYMKMTVCLETEKKSPLSWIEEKGPGLKRNRYLSFHFKSGSLENVPNVGVNKNIFLKDQNIFVQKLLGQFSEKELAAEKKRILHCLGLAEEIQKYCCSRK
- phosphorylation of IRS-1 peptide by BVR (32P, cpm) [4]: both the mutated and unmutated peptides were phosphorylated to about the same extent (1049±78 cpm and 1081±183 cpm respectively)
- phosphorylation of BVR by IRK in the presence of increasing molar ratio of IRS/BVR [5]: in the presence of increasing amounts of IRS, there was an increase in phosphorylation of BVR by IR up to equimolar ratio of IRS/BVR
- phosphorylation of IRS-1 peptide by BVR (32P, cpm) [5]: both the mutated and unmutated peptides were phosphorylated to about the same extent (1049±78 cpm and 1081±183 cpm respectively)
- phosphorylation of IRS-1 peptide by BVR (32P, cpm) [6]: this peptide is also a suitable substrate for BVR (1198±230 cpm)

B2: G^17: human BVR point mutant GVGRA to GVARA in ATP binding domain (protein, UniProt P53004 3-296, looked up, variant G17A)
Biliverdin reductase A: AEPERKFGVVVVGVARAGSVRMRDLRNPHPSSAFLNLIGFVSRRELGSIDGVQQISLEDALSSQEVEVAYICSESSSHEDYIRQFLNAGKHVLVEYPMTLSLAAAQELWELAEQKGKVLHEEHVELLMEEFAFLKKEVVGKDLLKGSLLFTAGPLEEERFGFPAFSGISRLTWLVSLFGELSLVSATLEERKEDQYMKMTVCLETEKKSPLSWIEEKGPGLKRNRYLSFHFKSGSLENVPNVGVNKNIFLKDQNIFVQKLLGQFSEKELAAEKKRILHCLGLAEEIQKYCCSRK
- IRS phosphorylation by BVR (IRS-1): for the most part, prevented IRS phosphorylation by BVR

From patent US20130344053A1, “Methods of Modifying Insulin Signaling Using Biliverdin Reductase (BVR) and BVR Derived Peptides” (University of Rochester, priority 2010, published 2013)
